Source: patent US20100227824A1 (SYMTHERA CANADA, published 2010)
Ends that are not written are not given here.

T1: I-309 (CCL1) (UniProt P22362 23-96, limits assumed)
T1 construct: Bought chemokine
T1 sequence (looked up): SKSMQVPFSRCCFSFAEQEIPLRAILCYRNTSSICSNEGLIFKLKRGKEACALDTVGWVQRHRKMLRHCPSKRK

T2: I-TAC (CXCL11) (UniProt O14625 22-94)
T2 construct: Bought chemokine; also called I-TACK
T2 sequence (looked up): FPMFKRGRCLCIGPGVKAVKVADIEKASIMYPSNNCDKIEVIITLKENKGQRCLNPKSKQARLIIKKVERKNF

T3: GRO-β (CXCL2) (UniProt P19875 35-107)
T3 construct: Bought chemokine
T3 sequence (looked up): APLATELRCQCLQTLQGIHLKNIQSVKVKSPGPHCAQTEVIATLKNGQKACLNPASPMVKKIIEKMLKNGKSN

T4: MCP-2 (CCL8) (UniProt P80075 24-99)
T4 construct: Bought chemokine
T4 sequence (looked up): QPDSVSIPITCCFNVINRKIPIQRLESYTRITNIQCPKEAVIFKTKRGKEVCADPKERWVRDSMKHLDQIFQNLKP

T5: Exodus-2 (CCL21) (UniProt O00585 24-134)
T5 construct: Bought chemokine
T5 sequence (looked up): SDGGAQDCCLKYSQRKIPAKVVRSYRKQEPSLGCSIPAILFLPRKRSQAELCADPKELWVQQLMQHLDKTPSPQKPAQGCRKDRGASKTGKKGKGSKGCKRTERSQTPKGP

T6: RANTES (CCL5) (UniProt P13501 24-91)
T6 construct: Bought chemokine
T6 sequence (looked up): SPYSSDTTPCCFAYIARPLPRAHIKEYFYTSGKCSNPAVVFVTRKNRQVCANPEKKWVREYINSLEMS

T7: Mig (CXCL9) (UniProt Q07325 23-125)
T7 construct: Bought chemokine
T7 sequence (looked up): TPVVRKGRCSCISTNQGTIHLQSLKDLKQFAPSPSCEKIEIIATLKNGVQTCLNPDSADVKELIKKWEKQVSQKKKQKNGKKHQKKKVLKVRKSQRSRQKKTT

T8: Lymphotactin (XCL-1) (UniProt P47992 23-114, limits assumed)
T8 construct: Bought chemokine
T8 sequence (looked up): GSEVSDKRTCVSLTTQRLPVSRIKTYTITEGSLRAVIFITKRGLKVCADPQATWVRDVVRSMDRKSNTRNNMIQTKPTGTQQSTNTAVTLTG

T9: IP-10 (CXCL10) (UniProt P02778 22-98)
T9 construct: Bought chemokine
T9 sequence (looked up): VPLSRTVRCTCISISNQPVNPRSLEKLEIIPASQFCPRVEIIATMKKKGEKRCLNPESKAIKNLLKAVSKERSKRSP

T10: BCA-1 (CXCL13) (UniProt O43927 23-109)
T10 construct: Bought chemokine
T10 sequence (looked up): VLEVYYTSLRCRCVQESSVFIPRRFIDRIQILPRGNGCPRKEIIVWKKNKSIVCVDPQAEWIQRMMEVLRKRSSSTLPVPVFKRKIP

T11: TECK (CCL25) (UniProt O15444 24-150)
T11 construct: Bought chemokine
T11 sequence (looked up): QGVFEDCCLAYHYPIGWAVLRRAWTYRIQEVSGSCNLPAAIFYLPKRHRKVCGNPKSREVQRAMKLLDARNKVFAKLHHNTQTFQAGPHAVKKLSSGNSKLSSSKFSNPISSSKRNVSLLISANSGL

T12: Eotaxin 3 (CCL26) (UniProt Q9Y258 24-94)
T12 construct: Bought chemokine
T12 sequence (looked up): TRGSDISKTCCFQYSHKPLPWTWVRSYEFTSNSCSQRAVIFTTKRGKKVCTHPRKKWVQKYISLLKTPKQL

T13: Eotaxin 2 (CCL24) (UniProt O00175 27-104, limits assumed)
T13 construct: Bought chemokine
T13 sequence (looked up): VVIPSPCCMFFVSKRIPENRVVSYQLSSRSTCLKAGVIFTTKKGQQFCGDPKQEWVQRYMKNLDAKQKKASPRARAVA


target: T14, Eotaxin (CCL11) (UniProt P51671 24-97); test: micro-array, phage-presented peptide on printed CK
T14 construct: Bought chemokine
Method: (§1) (1) Printing: Chemokine (CK) solution (in water) was serially diluted with Print Reagent (GenTel BioSurfaces USA) to final concentrations of 50 μg and 25 μg/ml. BSA/BSA-Biotin control solutions (in water) were diluted with Print Reagent to 100 μg/ml. Amplified stock of M13 phage control (M13KEgIII Cloning Vector, New England Biolabs, Cat.No.E8101S) was stored in Tris Buffered Saline (TBS; pH7.5, 4° C.) and diluted with Print Reagent to the working titre (10^8 pfu/μl). An automated spotting robot (16 pin print tool, 0.4mm head; BioRobotics, UK) was used to print the CK/BSA control/M13 control, 5 repeats per sample (CK 25 μg/ml and 50 μg/ml; BSA 100 μg/ml; M13 20 μl), on PATH Protein Microarray Slides (GenTel, Prod.No.2-1005/-1025) at […], and 50-70% relative humidity. Printed micro-array slides were stored at Room Temperature (RT) or 4° C. for at least 24 h before use.
(§2) (2) Blocking: Block Buffer (500 μl/partition; PATHblock, GenTel, Prod.No.2-1014) was applied to the slide for 1 hour at room temp (RT). After removal of Block Buffer, the slide was air dried for 25 minutes;
(§3) (11) Analysis: Quantitative analysis of micro-array was performed by the SpotReader program of Niles Scientific (USA) and presented as Relative Fluorescence (RF) as a function of CK concentration. Micro-array readout (Cy3 fluorescence) was quantified to determine the relative binding affinities of a CBP for the CKs and by inference, the specificity of the CBP for binding to a CK.

T14 sequence (P51671 24-97 limits assumed): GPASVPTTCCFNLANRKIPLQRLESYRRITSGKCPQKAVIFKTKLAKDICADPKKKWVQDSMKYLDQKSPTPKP

| Binder | binding result |
| --- | --- |
| WVFG [Phage-Presented Peptide 8.4 (Ph-p8.4)] | binds |
| TKCQKE [Phage-Presented Peptide 20 (Ph-p20)] | binds |
| SYYDDVGL [Phage-Presented Peptide 27 (Ph-p27)] | binds |
| HYTCSSHFP (also: displayed on M13 phage, fusion not given here) [Phage-Presented Peptide 17 (Ph-p17)] | binds |

target: T1, I-309 (CCL1); test: micro-array, phage-presented peptide on printed CK
Method: as §1, §2, §3

| Binder | binding result |
| --- | --- |
| WVFG [Phage-Presented Peptide 8.4 (Ph-p8.4)] | binds |

target: T2, I-TAC (CXCL11); test: micro-array, phage-presented peptide on printed CK
Method: as §1, §2, §3

| Binder | binding result | Relative Fluorescence Units (RFU) |
| --- | --- | --- |
| WVFG [Phage-Presented Peptide 8.4 (Ph-p8.4)] | binds |  |
| SYYDDVGL [Phage-Presented Peptide 27 (Ph-p27)] |  | > 15000 RFU |
| HYTCSSHFP (also: displayed on M13 phage, fusion not given here) [Phage-Presented Peptide 17 (Ph-p17)] | binds |  |

target: T3, GRO-β (CXCL2); test: micro-array, phage-presented peptide on printed CK
Method: as §1, §2, §3

| Binder | binding result |
| --- | --- |
| TKCQKE [Phage-Presented Peptide 20 (Ph-p20)] | binds |
| SYYDDVGL [Phage-Presented Peptide 27 (Ph-p27)] | binds |
| HYTCSSHFP (also: displayed on M13 phage, fusion not given here) [Phage-Presented Peptide 17 (Ph-p17)] | binds |

target: T15, MCP-4 (CCL13) (UniProt Q99616 24-98); test: micro-array, phage-presented peptide on printed CK
T15 construct: Bought chemokine
Method: as §1, §2, §3

T15 sequence (Q99616 24-98 limits assumed): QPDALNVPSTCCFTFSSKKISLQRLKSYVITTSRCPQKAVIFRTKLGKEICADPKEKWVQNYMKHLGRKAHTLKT

| Binder | Relative Fluorescence Units (RFU) | binding result |
| --- | --- | --- |
| WVFGNAMCK (also called Ph-p28; Ph-p 8) [Phage Presented (Ph) Peptide (p) 8] | > 25000 RFU |  |
| WVFG [Phage-Presented Peptide 8.4 (Ph-p8.4)] | > 15000 RFU |  |
| TKCQKE [Phage-Presented Peptide 20 (Ph-p20)] | > 15000 RFU |  |
| SYYDDVGL [Phage-Presented Peptide 27 (Ph-p27)] |  | binds |
| HYTCSSHFP (also: displayed on M13 phage, fusion not given here) [Phage-Presented Peptide 17 (Ph-p17)] |  | binds |

target: T4, MCP-2 (CCL8); test: micro-array, phage-presented peptide on printed CK
Method: as §1, §2, §3

| Binder | Relative Fluorescence Units (RFU) | binding result |
| --- | --- | --- |
| WVFGNAMCK (also called Ph-p28; Ph-p 8) [Phage Presented (Ph) Peptide (p) 8] | > 25000 RFU |  |
| WVFG [Phage-Presented Peptide 8.4 (Ph-p8.4)] | > 15000 RFU |  |
| TKCQKE [Phage-Presented Peptide 20 (Ph-p20)] | > 15000 RFU |  |
| SYYDDVGL [Phage-Presented Peptide 27 (Ph-p27)] |  | binds |
| HYTCSSHFP (also: displayed on M13 phage, fusion not given here) [Phage-Presented Peptide 17 (Ph-p17)] | > 600 RFU |  |

target: T16, MCP-1 (CCL2) (UniProt P13500 24-99); test: micro-array, phage-presented peptide on printed CK
T16 construct: Bought chemokine
Method: as §1, §2, §3

T16 sequence (P13500 24-99 limits assumed): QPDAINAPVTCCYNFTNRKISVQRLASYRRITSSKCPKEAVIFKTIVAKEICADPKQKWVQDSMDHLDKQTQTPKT

| Binder | Relative Fluorescence Units (RFU) | binding result |
| --- | --- | --- |
| TKCQKE [Phage-Presented Peptide 20 (Ph-p20)] | > 15000 RFU |  |
| SYYDDVGL [Phage-Presented Peptide 27 (Ph-p27)] |  | binds |
| HYTCSSHFP (also: displayed on M13 phage, fusion not given here) [Phage-Presented Peptide 17 (Ph-p17)] |  | binds |

target: T5, Exodus-2 (CCL21); test: micro-array, phage-presented peptide on printed CK
Method: as §1, §2, §3

| Binder | binding result |
| --- | --- |
| TKCQKE [Phage-Presented Peptide 20 (Ph-p20)] | binds |
| SYYDDVGL [Phage-Presented Peptide 27 (Ph-p27)] | binds |

target: T6, RANTES (CCL5); test: micro-array, phage-presented peptide on printed CK
Method: as §1, §2, §3

| Binder | binding result | Relative Fluorescence Units (RFU) |
| --- | --- | --- |
| TKCQKE [Phage-Presented Peptide 20 (Ph-p20)] | binds |  |
| SYYDDVGL [Phage-Presented Peptide 27 (Ph-p27)] | binds |  |
| HYTCSSHFP (also: displayed on M13 phage, fusion not given here) [Phage-Presented Peptide 17 (Ph-p17)] |  | > 600 RFU |

target: T7, Mig (CXCL9); test: micro-array, phage-presented peptide on printed CK
Method: as §1, §2, §3

| Binder | binding result | Relative Fluorescence Units (RFU) |
| --- | --- | --- |
| WVFG [Phage-Presented Peptide 8.4 (Ph-p8.4)] | binds |  |
| TKCQKE [Phage-Presented Peptide 20 (Ph-p20)] | binds |  |
| SYYDDVGL [Phage-Presented Peptide 27 (Ph-p27)] |  | > 15000 RFU |
| HYTCSSHFP (also: displayed on M13 phage, fusion not given here) [Phage-Presented Peptide 17 (Ph-p17)] | binds |  |

target: T8, Lymphotactin (XCL-1); test: micro-array, phage-presented peptide on printed CK
Method: as §1, §2, §3

| Binder | Relative Fluorescence Units (RFU) | binding result |
| --- | --- | --- |
| GNAMCK [Phage-Presented Peptide 8.1 (Ph-p8.1)] | > 15000 RFU |  |
| WVFG [Phage-Presented Peptide 8.4 (Ph-p8.4)] |  | binds |
| TKCQKE [Phage-Presented Peptide 20 (Ph-p20)] |  | binds |
| SYYDDVGL [Phage-Presented Peptide 27 (Ph-p27)] |  | binds |
| HYTCSSHFP (also: displayed on M13 phage, fusion not given here) [Phage-Presented Peptide 17 (Ph-p17)] |  | binds |

target: T9, IP-10 (CXCL10); test: micro-array, phage-presented peptide on printed CK
Method: as §1, §2, §3

| Binder | binding result |
| --- | --- |
| WVFG [Phage-Presented Peptide 8.4 (Ph-p8.4)] | binds |
| TKCQKE [Phage-Presented Peptide 20 (Ph-p20)] | binds |

target: T10, BCA-1 (CXCL13); test: micro-array, phage-presented peptide on printed CK
Method: as §1, §2, §3

| Binder | Relative Fluorescence Units (RFU) | binding result |
| --- | --- | --- |
| GNAMCK [Phage-Presented Peptide 8.1 (Ph-p8.1)] | > 15000 RFU |  |
| WVFG [Phage-Presented Peptide 8.4 (Ph-p8.4)] |  | binds |
| TKCQKE [Phage-Presented Peptide 20 (Ph-p20)] |  | binds |
| SYYDDVGL [Phage-Presented Peptide 27 (Ph-p27)] |  | binds |

target: T11, TECK (CCL25); test: micro-array, phage-presented peptide on printed CK
Method: as §1, §2, §3

| Binder | Relative Fluorescence Units (RFU) | binding result |
| --- | --- | --- |
| GNAMCK [Phage-Presented Peptide 8.1 (Ph-p8.1)] | > 15000 RFU |  |
| WVFG [Phage-Presented Peptide 8.4 (Ph-p8.4)] |  | binds |
| TKCQKE [Phage-Presented Peptide 20 (Ph-p20)] |  | binds |
| SYYDDVGL [Phage-Presented Peptide 27 (Ph-p27)] |  | binds |
| HYTCSSHFP (also: displayed on M13 phage, fusion not given here) [Phage-Presented Peptide 17 (Ph-p17)] |  | binds |

target: T12, Eotaxin 3 (CCL26); test: micro-array, phage-presented peptide on printed CK
Method: as §1, §2, §3

| Binder | Relative Fluorescence Units (RFU) | binding result |
| --- | --- | --- |
| GNAMCK [Phage-Presented Peptide 8.1 (Ph-p8.1)] | > 15000 RFU |  |
| WVFG [Phage-Presented Peptide 8.4 (Ph-p8.4)] |  | binds |
| TKCQKE [Phage-Presented Peptide 20 (Ph-p20)] |  | binds |
| SYYDDVGL [Phage-Presented Peptide 27 (Ph-p27)] |  | binds |
| HYTCSSHFP (also: displayed on M13 phage, fusion not given here) [Phage-Presented Peptide 17 (Ph-p17)] |  | binds |

target: T13, Eotaxin 2 (CCL24); test: micro-array, phage-presented peptide on printed CK
Method: as §1, §2, §3

| Binder | binding result |
| --- | --- |
| SYYDDVGL [Phage-Presented Peptide 27 (Ph-p27)] | binds |
